The values that follow come from patent US11091749B2, “Deimmunized lysostaphin and methods of use” (TRUSTEES OF DARTMOUTH COLLEGE, priority 2014, dated 2021).

Numbering of substitutions follows the chain as printed. Names and notes keep the numbering of the source.

Series [1] has as its system S. aureus cells. Nature of the series: Lytic assay using purified protein (SYTOX kinetic assay). The series is classed as cell-based, Staphylococcus aureus. Particulars: for % WT Lytic Rate: biological duplicates; for % Wild-Type Activity: 200 ng purified enzyme. How it is done:
(§1) S. aureus cells were grown either to mid-log or to saturation in tryptic soy broth (TSB) at 37° C. with shaking. The cells were harvested by centrifugation and washed once in phosphate buffered saline (PBS: 2.7 mM KCl, 1.5 mM KH2PO4, 8.9 mM Na2HPO4, 136.9 mM NaCl, pH 7.4). The assay was performed in 96-well, black, clear bottom plates from Greiner Bio-One (Monroe, N.C.). The final (250 μl) reaction was composed of 10 μl of P. pastoris culture supernatant, S. aureus cells at OD600=1.5, and 5 μM SYTOX Green (Thermo Fisher Scientific; Waltham, Mass.), all in PBS. Data were collected using SPECTRAMAX GEMINI Fluorescence Microplate Reader (Molecular Devices; Sunnyvale, Calif.) using an excitation/emission of 504/523 nm, and rates were determined from the slope of the steepest linear portion of the trace. Each assay was performed with 500 ng of commercially-sourced lysostaphin (ssLys) as an internal control.
The activity of purified lysostaphin variants was examined using the SYTOX kinetic assay as previously described in Chapter 2, Section 3.2.6. 200 ng of purified enzyme (instead of culture supernatant) was used in each reaction.

A further series concerns MRSA strain 3425-3. In words: MIC assay. The series is classed as cell-based, Staphylococcus aureus. Particulars: biological duplicates. How it is done:
(§2) The MICs of wild-type lysostaphin and its variants were determined by adding 2-fold serial dilutions of enzymes into wells of a polypropylene 96-well plate (Costar 3879) containing ˜40,000 S. aureus SA113 (or S. aureus 6445, 3425-1, 3425-3) cells in Muller Hinton broth (BD) supplemented with 2% NaCl and 0.1% bovine serum albumin, yielding a total volume of 100 μl. Plates were grown overnight at 37° C. with shaking at 900 rpm on an Orbit P4 orbital shaker (Labnet; Edison, N.J.). […] The assay was performed in triplicate for each enzyme.

Another series relates to S. aureus 3425-1. In words: MIC assay. Format: cell-based, Staphylococcus aureus. Particulars: biological duplicates. How it is done:
as §2

Series [2] deals with S. aureus SA113. In words: MIC assay. Format: cell-based, Staphylococcus aureus. Particulars: for MIC Strain SA113: biological duplicates; for MIC: S. aureus SA113, purified enzyme. How it is done:
as §2

A further series has as its system S. aureus 6445. Nature of the series: MIC assay. Particulars: biological duplicates. The series is classed as cell-based, Staphylococcus aureus.
A short description of series [3]: Thermostability by differential scanning fluorimetry. The series is classed as physicochemical. How it is done:
The relative thermostability of the lysostaphin variants was determined by differential scanning fluorimetry, as previously described (Niesen, et al. (2007) Nat. Protocols 2:2212-2221). Proteins and SYPRO Orange were diluted in PBS (final concentrations of 100 μg/ml and 5× in 20 μl reaction volume, respectively), and fluorescence was quantified at 1-degree increments from 25 to 94° C. using an Applied Biosystems ABI 7500 fast real-time PCR system. The reactions were performed using PCR Plates for Fast Thermocyclers (VWR; Radnor, Pa.). Fluorescence was quantified using the preset TAMRA parameters. Melting temperatures were determined by data analysis with the ‘DSF Analysis v3.0.xlsx’ EXCEL sheet and GraphPad Prism v.6.02 software.
(In general: In DSF a fluorescence change marks the thermal transition of the protein.)

Series [4] has as its system S. aureus SA113. In words: MIC assay using P. pastoris culture supernatant (MIC50). Particulars: aglycosylated mutants. Format: cell-based, Staphylococcus aureus. How it is done: Lysostaphin MIC was determined essentially as described (Zhao, et al. (2014) supra). Briefly, 100 μl aliquots of P. pastoris culture supernatant were serially diluted in TSB. Each well was inoculated with 100 μl of ˜10^6 CFU/ml S. aureus SA113 in TSB. Microplates were incubated at 37° C. for 24 hours. […] MIC50 was quantified by measuring light scattering at 650 nm in a microplate reader.

Series [5] deals with S. aureus cells. In words: Lytic assay of culture supernatant (SYTOX Green). Format: cell-based, Staphylococcus aureus. Particulars: single point mutants. How it is done:
as §1
The amount of protein used in each assay was estimated from SDS-PAGE gels. Briefly, 10 μl of culture supernatant was run on a SDS-PAGE gel together with standards of 0.5 μg, 0.7 μg, and 1 μg of ssLys in separate lanes. The gel was stained using GELCODE Blue Stain Reagent from Thermo Fisher Scientific (Carlsbad, Calif.) and bands quantified using Quantity Tools from Image Lab 5.1 software (Bio-Rad Laboratories; Hercules, Calif.).

Series [6] deals with pooled splenocytes. Particulars: mouse, in vivo.
Text: HUMI mice were constructed by surgical transplantation of human bone marrow, liver, and thymus tissues into NOD/SCID/γc^−/− mice (Dartmouth Transgenics & Genetic Constructs Shared Resource) as described (Brainard, et al. (2009) J. Virol. 83:7305-21). All animals were humanized from the same human donor. Mice used experimentally had human lymphocytes as a minimum of 25% of their total peripheral blood leukocytes. Fourteen weeks post-engraftment, 12 female HUMI mice were divided into 3 groups of 4 each and immunized with a single 50 μl subcutaneous injection of 100 μg wild-type LST, 100 μg variant Flex 5, or 100 μg variant Flex 9 in complete Freund's adjuvant (CFA). Two weeks following the immunization, mice were sacrificed and splenocytes were harvested and pooled for each group. Pooled splenocytes (5×10^5/well) were plated in triplicate into 96-well plates with medium containing 5% fetal calf serum, 1-glutamine, antibiotics, and a final concentration of 10 μg/ml LST or variants (or 1% DMSO as a control). […]
In vivo immunogenicity was evaluated using NOD/SCID/γc^−/− mice that had been surgically humanized with human immune cells, liver tissue, and thymus tissue (HUMI mice). […] Cell proliferation was measured by tritiated thymidine uptake at 72 hours.
The test system of series [7] is MRSA strain USA400. Nature of the series: In vitro inhibitory activity (MIC). The series is classed as cell-based, Staphylococcus aureus. From the text:
F11, P12 and F13 were screened for in vitro inhibitory activity against MRSA strain USA400 (FIG. 7).

Series [8] deals with MRSA strain USA400. Nature of the series: Efficacy of F12 in recurrent systemic MRSA infections. Particulars: for # Treated Mice Surviving: 1×10^9 MRSA USA400 i.p., 500 μg enzyme 1 hour later. Format: in vivo, DR4 HLA transgenic mice. How it is done: In a similar set of experiments, the immunogenicity and efficacy of variant F12 was compared to wild-type LST in the absence of adjuvant using DR4 HLA transgenic mice. At week 0, mice were challenged with an intraperitoneal injection of 2×10^8 MRSA strain USA400, and 1 hour later the mice were treated with 500 μg wild-type LST or 500 μg variant F12, given as a single bolus subcutaneous injection. Subsequently, mice were challenged weekly with an intraperitoneal injection of 1×10^9 MRSA strain USA400, and treated as above. Antibody titers were measured weekly beginning at week 2. […] Variant F12 rescued all mice from four recurrent, systemic, MRSA infections (Table 24). The substantially lower antibody titers elicited by variant F12 indicate that this variant is […] than wild-type LST.

Series [9] has as its system pooled splenocytes. Nature of the series: Transgenic DR4 murine immunogenicity study (memory response, splenocyte proliferation). Format: in vivo. Particulars: wild-type LST primed mice, 100 μg rechallenge. How it is done: Twelve female 6-8 week old DR4 transgenic mice (Abb Knockout/Transgenic HLA-DR4; B6.129S2-H2-Ab1tm1GruTg(HLA-DRA/H2-Ea,HLA-DRB1*0401/H2-Eb)1Kito; Taconic Farms, Germantown, N.Y.) were divided into four groups of three each and immunized with 50 μl subcutaneous injections of wild-type LST using one of the following four schemes: (i) initial immunization with 100 μg enzyme in CFA, followed by 100 μg boosts in incomplete Freund's adjuvant (IFA) on days 14 and 28; (ii) initial immunization with 20 μg enzyme in CFA, followed by 20 μg boosts in IFA on days 14 and 28; (iii) initial immunization with 100 μg enzyme in PBS buffer, followed by 100 μg boosts in PBS buffer on days 7, 14, 21 and 28; (iv) initial immunization with 20 μg enzyme in PBS buffer, followed by 20 μg boosts in PBS buffer on days 7, 14, 21 and 28. Serum IgG antibody titers against wild-type LST were measured on days 13, 20, 27, 34, and 62. […] Mice were housed without further manipulation until week 23 of the study, at which time serum IgG antibody titers were again measured and mice were divided into two experimental arms having equivalent average antibody titers. Note that during the week 9 to week 23 recovery period, two mice (the lowest titer 100 μg no adjuvant and one of the high titer 100 μg adjuvant) began suffering hair loss, weight loss, and reduced mobility and were sacrificed as per the IACUC approved protocol. […]

Consider “Commercial: Commercial lysostaphin purchased from Sigma, E. coli-produced”, for which the “% WT Lytic Rate” value in the series with S. aureus cells [1] worked out at 60 ± 20%. The “MIC Strain 3425-3” value against MRSA strain 3425-3 was 0.03 µg/mL. Besides, the “MIC Strain 3425-1” value against S. aureus 3425-1 is 0.04 µg/mL. Also, the “MIC Strain SA113” value against S. aureus SA113 [2] was 0.03 µg/mL. Besides, the “MIC Strain 6445” value in the series on S. aureus 6445 is 0.03 µg/mL. In addition, the Tm in series [3] (biological duplicates) is 47.3 °C.

Consider “Ser126Pro: aglycosylated lysostaphin mutant Ser126Pro, backbone of the designs”, for which the “activity compared to the wild-type lysostaphin” value in the series with S. aureus SA113 [4] was “equivalent activity”.

For Ser124Tyr, in the series on S. aureus cells [5], the “activity, % of the wild-type activity” value is given as 16%.

Regarding Phe38Gly, the “activity, % of the wild-type activity” value in the series on S. aureus cells [5] is 69%.

In the case of Thr127Ala, the “activity compared to the wild-type lysostaphin” value in the series on S. aureus SA113 [4] is “equivalent activity”.

B1: Flex 9: lysostaphin variant N12G, I41E, L83M, K95E, I99Q, N121G, S122D, S124G (protein, UniProt P10547 248-493, looked up, variant N12G I41E L83M K95E I99Q N121G S122D S124G)
Lysostaphin: AATHEHSAQWLGNYKKGYGYGPYPLGINGGMHYGVDFFMNEGTPVKAISSGKIVEAGWSNYGGGNQIGLIENDGVHRQWYMHMSKYNVKVGDYVEAGQQIGWSGSTGYSTAPHLHFQRMVGDFGNSTAQDPMPFLKSAGYGKAGGTVTPTPNTGWKTNKYGTLYKSESASFTPNTDIITRTTGPFRSMPQSGVLKAGQTIHYDEVMKQDGHVWVGYTGNSGQRIYLPVRTWNKSTNTLGVLWGTIK
For the molecule B1, in the series on S. aureus cells [1], the “% Wild-Type Activity” value is given as 57% and the “% WT Lytic Rate” value was determined as 60 ± 20%. Besides, the “MIC Strain 3425-3” value in the series on MRSA strain 3425-3 is 0.2 µg/mL. Moreover, in the series on S. aureus 3425-1, the “MIC Strain 3425-1” value was 0.2 µg/mL. For the same molecule, in the series on S. aureus SA113 [2], the MIC (in general, the lowest concentration found to suppress growth) is 0.1250 µg/mL and the “MIC Strain SA113” value was 0.04 µg/mL. Besides, the concentration preventing outgrowth in the series with S. aureus SA113 [2] (all four strains (SA113, 6445, 3425-1, 3425-3)) is at most 200 ng/mL. In addition, in the series with S. aureus 6445, the “MIC Strain 6445” value was found to be 0.13 µg/mL. Besides, the Tm in [3] (SYPRO Orange, PBS) turned out to be 53.0 °C. The Tm in [3] (biological duplicates) stood at 52.8 °C. Moreover, the “reduced proliferative response relative to wild-type group” value with pooled splenocytes [6] was determined as 65%.

B2: F12: variant combining cell wall binding domain mutations with Flex 9 (or derivative) catalytic domain (Table 22) (protein)
chain: B1 Lysostaphin with E95K, S126P, Y160H, S166N, A169G, R186T, N232Q, N236D
On to B2, for which, in the series on MRSA strain USA400 [7], the “MIC activity relative to wild-type LST” value turned out to be 25%. Further, the “retained original MIC activity after heating” value in the series with MRSA strain USA400 [7] (50° C. for 1 hour prior to assay) was found to be 50%. Further, the “recurrent systemic MRSA infections from which mice were rescued” value with MRSA strain USA400 [8] (500 μg s.c., weekly challenges, no adjuvant) is listed as “four”. In addition, the “# Treated Mice Surviving” value in the series with MRSA strain USA400 [8] (Week 1) is given as 9; in the series on MRSA strain USA400 [8] (Week 2), 8; with MRSA strain USA400 [8] (Week 3), 7; with MRSA strain USA400 [8] (Week 4), 6.

B3: Flex 5: lysostaphin variant K46H, I99Q, N121G, S122D (protein, UniProt P10547 248-493, looked up, variant K46H I99Q N121G S122D)
Lysostaphin: B1 Lysostaphin with G12N, E41I, K46H, M83L, E95K, G124S
For the molecule B3, in the series with S. aureus cells [1], the “% Wild-Type Activity” value is recorded as 61% and the “% WT Lytic Rate” value turned out to be 70 ± 30%. Besides, in the series with MRSA strain 3425-3, the “MIC Strain 3425-3” value is 0.05 µg/mL. In addition, the “MIC Strain 3425-1” value with S. aureus 3425-1 worked out at 0.11 µg/mL. Moreover, in the series with S. aureus SA113 [2], the MIC was found to be 0.1042 µg/mL and the “MIC Strain SA113” value was 0.02 µg/mL. For the same molecule, in the series on S. aureus 6445, the “MIC Strain 6445” value turned out to be 0.06 µg/mL. Further, in series [3] (SYPRO Orange, PBS), the Tm was 55.7 °C. The Tm in series [3] (biological duplicates) was determined as 55.8 °C. Further, the “proliferation of pooled splenocytes” value in the series with pooled splenocytes [9] is recorded as “at or below background levels”. The “reduced proliferative response relative to wild-type group” value in the series with pooled splenocytes [6] was 50%.
